For assay [1], the target named is soluble form of human VLDL receptor (human) (UniProt P98155). Nature of the assay: SPR.
A further assay has as its target human fibrin (human) (UniProt P02679). Nature of the assay: ELISA. For orientation: ELISA stands for enzyme-linked immunosorbent assay.
Assay [2] has as its target recombinant fibrin (β15-66)2 fragment (human). Briefly: ELISA.
For assay [3], the target named is recombinant fibrinogen (Bβ1-66)2 fragment (human). Nature of the assay: ELISA.
Assay [4] addresses soluble form of human VLDL receptor (human, UniProt P98155 28-797). Nature of the assay: ELISA.

The Kd is the free concentration of one partner at which half of the binding sites on the other are occupied at equilibrium, for simple one-to-one binding.

As for “recombinant fibrinogen (Bβ1-66)2 fragment (domain or fragment)”, the Kd in assay [1] worked out at 254 nM.

Consider “soluble form of human VLDL receptor (from UniProt P98155 28-797)”, for which the Kd amounted to 7.2 nM with human fibrin (human), 5.9 nM in assay [2] and 7.7 nM in assay [3].

B1: human receptor-associated protein (natural protein, UniProt P30533 35-357, looked up)
chain: YSREKNQPKPSPKRESGEEFRMEKLNQLWEKAQRLHLPPVRLAELHADLKIQERDELAWKKLKLDGLDEDGEKEARLIRNLNVILAKYGLDGKKDARQVTSNSLSGTQEDGLDDPRLEKLWHKAKTSGKFSGEELDKLWREFLHHKEKVHEYNVLLETLSRTEEIHENVISPSDLSDIKGSVLHSRHTELKEKLRSINQGLDRLRRVSHQGYSTEAEFEEPRVIDLWDLAQSANLTDKELEAFREELKHFEAKIEKHNHYQKQLEIAHEKLRHAESVGDGERVSRSREKHALLEGRTKELGYTVKKHLQDLSGRISRARHNEL
Regarding B1, the binding result in assay [4] is recorded as “binds”.

Source of the values: publication PMC5811407 (Thrombosis research, 2017).
